In paper PMC3882140:

Biological target: CP-431C/mCherrySP141(C140A) P22 procapsid (bacteriophage P22) (UniProt P26747)
Assay: pelleting by ultracentrifugation and resuspension

For “CP-431C/mCherrySP141(C140A) P22 procapsid (from UniProt P26747 1-430; P26748 141-303) (complex)”, the soluble capsid recovered after pelleting, relative to wtCP/mCherrySP141(C140A) was 3%.
